Test results: article PMC8930183, “Structure of the Pf12 and Pf41 heterodimeric complex of Plasmodium falciparum 6-cysteine proteins” (FEMS Microbes, 2022)

B1: Pf12 D1D2 (residues 28-304), untagged [Plasmodium falciparum] / octa-histidine tagged Pf41 D1D2 (residues 21-368) [Plasmodium falciparum] (parent complex)
chain 1: NLTCDFNDVYKLEFHPNQQTSVTKLCNLTPNVLEKVTIKCGSDKLNYNLYPPTCFEEVYASRNMMHLKKIKEFVIGSSMFMRRSLTPNKINEVSFRIPPNMMPEKPIYCFCENKKTITINGSNGNPSSKKDIINRGIVEIIIPSLNEKVKGCDFTTSESTIFSKGYSINEISNKSSNNQQDIVCTVKAHANDLIGFKCPSNYSVEPHDCFVSAFNLSGKNENLENKLKLTNIIMDHYNNTFYSRLPSLISDNWKFFCVCSKDNEKKLVFTVEASISS
chain 2: KSHKCDFTKEKYLLSGEKEVSCEIDANPSDDITFICPNKIDSLCFHTVNISKNINQNKSTMSIQDLLYGSVVYGNTLFISPYVRTNTPFYCFCNLDTVTIQKFLKINRFLKDDDELSEADVMKHLKGGNVSEAQADEYLNKALNRFKKMKDLSKFFNDQADNTTKLNLPKSLNIPNDILNYDVYNSSNNRNDIVVKDEVTNKQIISKRGIMSVFVRSNNNVIKGCDFGNNNKNYFSHPISVAGKVNNKVCKIQGKPGELVGFKCAFEENGKVEPPNCFDQVLHKNKVTDLKTLIPGYASYTNKHSSKYPYYLKIPHFVNEQYTIQCKCKSNNSQNEYTFELDIQPGES

Variants of: B1
Assay: BLI; mutant at 1000 nM, 500 nM, and 250 nM; binding to immobilised WT Pf41; parent: 100; read off a plot

Row | Variant | percent of parent [% WT]
1 | chain 1 NLTCDFNDVYKLEFHPNQQTSVTKLCNLTPNVLEKVTIKCGSDKLNYNLYPPTCFEEVYASRNMMHLKKIKEFVIGSSAFMRRSLTPNKINEVSFRIPPNMMPEKPIYCFCENKKTITINGSNGNPSSKKDIINRGIVEIIIPSLNEKVKGCDFTTSESTIFSKGYSINEISNKSSNNQQDIVCTVKAHANDLIGFKCPSNYSVEPHDCFVSAFNLSGKNENLENKLKLTNIIMDHYNNTFYSRLPSLISDNWKFFCVCSKDNEKKLVFTVEASISS [chain 1 M79A] | ~27
2 | chain 1 NLTCDFNDVYKLEFHPNQQTSVTKLCNLTPNVLEKVTIKCGSDKLNYNLYPPTCFEEVYASRNMMHLKKIKEFVIGSSMFMRRSLTPNKINEVSFRIPPNMMPEKPIYCFCENKKTITINGSNGNPSSKKDIINRGIVEIIIPSLNEKVKGCDFTTSESTIFSKGYSINEISNKSSNNQQDIVCTVKAHANDLIGFKCPSNYSVEPHDCFVSALNLSGKNENLENKLKLTNIIMDHYNNTFYSRLPSLISDNWKFFCVCSKDNEKKLVFTVEASISS [chain 1 F214L] | ~67
3 | chain 1 NLTCDFNDVYKLEFHPNQQTSVTKLCNLTPNVLEKVTIKCGSDKLNYNLYPPTCFEEVYASRNMMHLKKIKEFVIGSSMFARRSLTPNKINEVSFRIPPNMMPEKPIYCFCENKKTITINGSNGNPSSKKDIINRGIVEIIIPSLNEKVKGCDFTTSESTIFSKGYSINEISNKSSNNQQDIVCTVKAHANDLIGFKCPSNYSVEPHDCFVSAFNLSGKNENLENKLKLTNIIMDHYNNTFYSRLPSLISDNWKFFCVCSKDNEKKLVFTVEASISS [chain 1 M81A] | ~22
